Test results: publication doi:10.1101/2022.02.27.481963

Molecular target: Fused MjGMPS (MjATPPase subunit fused to the C-terminus of MjGATase, no intervening linker) (Methanocaldococcus jannaschii)
Assay: SEC

Fused MjGMPS (MjATPPase subunit fused to the C-terminus of MjGATase, no intervening linker) (enzyme)
stoichiometry N: 2
